{
  "source": "the nanobody polyreactivity screen of Harvey et al. (2022)",
  "data": [
    {"experiment": "yeast display, Sf9 membrane polyspecificity reagent, FACS + sequencing; frameworks hold sequencing errors", "method_in_brief": "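Genes from sorted yeast were amplified by colony PCR, read by MiSeq 2 × 250 sequencing and filtered on CDR length. These cells carried a synthetic nanobody library in Saccharomyces cerevisiae BJ5465 and were sorted by FACS into low and high (top ~1%) gates on anti-HA and streptavidin fluorescence. Polyreactivity is labelled according to the gate of origin.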", "values": [
      {"sequence": "QVQLVDSGGGLVQAGGRLRLSCAASGSIYAAYTMGRYRQAPGKERELVAAISVSTVSTYYADSVKGRFTISRDNAKNTVYLQMNSLKPDDTAVYYCNADATYSYPEKDEPDSWGQGTQVTVSS", "polyreactivity (PSR sort gate)": "low polyreactivity"},
      {"sequence": "QVQLVDSGGGLVQAGGSHRLSCAASGLTFRKYPMGWYRQAPGKERELVATISRNGGSTYYADSVKGRFTISRDNAKNTVYFQMNSLKPEDTAVFYCAADYYNYDYAGYGYWGQVTQVTVSS", "polyreactivity (PSR sort gate)": "high polyreactivity"},
      {"sequence": "QVQLVDSGGGLVQAGGSLCLSCPASGGTSRVNAMGWYRQAPGKETELVARIRSGGSTYYADSVKGRFTISRDNAKNTVYFKMNRLKPEDTAVYHCAAVPRRTGQQQDMDYWGQGTQVTVSS", "polyreactivity (PSR sort gate)": "high polyreactivity"},
      {"sequence": "QVQLVDSGGGLVQAGGSLLLSCAASGSTYKFYAMGWYRQAPGKERELVASITSSSGPTYYADSVKGRFTISRDNAKNTVYLQMKSLKPEDTAVYYCAKRPIRYYHLLRGNYWGQGTQVTVSS", "polyreactivity (PSR sort gate)": "low polyreactivity"},
      {"sequence": "QVQLVDSGGGLVQAGGSLRESCAASGSTFYYNDMGWSRQAPGKDRELVAAIRTSGSTNYAESVKGRFTLSRDNAKNTVYLQMNSLKPEDTEVYYCNAVVRHWFPGWYGRGDDYWGQGTQVTVSS", "polyreactivity (PSR sort gate)": "low polyreactivity"},
      {"sequence": "QVQLVDSGGGLVQAGGSLRLGCAASGRIFAGYGMGWYRQAPGKERELVATITSGGSTYYADSLKGRFTISRDNAKNTVYLQMNSLKPEDTAVYYCNRYFSEALLHGSSYNRYYYWGQGTQVSVSS", "polyreactivity (PSR sort gate)": "low polyreactivity"},
      {"sequence": "QVQLVDSGGGLVQAGGSLRLICAASGRTFGTNALGWYRQAPGKEREFVAAIRWSDGSTYYADSVKGRFTISRDNAKNTVYLQMNSLKPEDTAVYYCAKEYYIVDVIHDYALYLYDYWGQGTQVTVSS", "polyreactivity (PSR sort gate)": "low polyreactivity"},
      {"sequence": "QVQLVDSGGGLVQAGGSLRLICAASGRTIWYYAMGWYRQAPGKERELLASITRSGGSTYADSVKGRFTISRDNAKNSVYLQMYSLKPEDTAVDYCAATRPRIPVYQNNYGYWGQGTQVTVSS", "polyreactivity (PSR sort gate)": "high polyreactivity"},
      {"sequence": "QVQLVDSGGGLVQAGGSLRLICDASGFIFFAYAMGWYRQAPGKERELVAVITSGGGTNYADSVKGRFTFSRDNAKNTVYLQMTSLKPEDTAVYYCNADYFFASTEFYYWGQGTQVTVSS", "polyreactivity (PSR sort gate)": "low polyreactivity"},
      {"sequence": "QVQLVDSGGGLVQAGGSLRLIFAASGITQPYYAMGWYRQAPGKERELVAGISSRGGSTYYADSVKGRFTISRDNAKNTVYLQMNSLIPEDTAVYYCAAKVASTRLGPAYGYWGQGTQVTLSS", "polyreactivity (PSR sort gate)": "high polyreactivity"},
      {"sequence": "QVQLVDSGGGLVQAGGSLRLRGAASGRIFFYYAMGWYRQAPGKERELLAAITYSVDSTYYADSVKGRFTISRDNAKNTVYLQMNSLKPEDTAVYYCAADDIHYVIHAYYSSGVDYWGQGTQVTVSS", "polyreactivity (PSR sort gate)": "low polyreactivity"},
      {"sequence": "QVQLVDSGGGLVQAGGSLRLSCAACGSTFVLYGMGWYRQAPGKQRELVADITGGGSSTYYADSVKGRFTISRDYAKNTVYLQMNSLKPEDTAVYYCNADYYPFYWIEPATPYLGFDYWGQGTQVTVSS", "polyreactivity (PSR sort gate)": "low polyreactivity"},
      {"sequence": "QVQLVDSGGGLVQAGGSLRLSCAASGAIFDIYGMGWYRQAPGKERELVASISGGAGSTNYADSVKGRFTISRDNAKNTVYLQMNSLKPEDTAVYYCAAEVYVPDYFQHKFDVEYEYWGHGTQVTVSS", "polyreactivity (PSR sort gate)": "low polyreactivity"},
      {"sequence": "QVQLVDSGGGLVQAGGSLRLSCAASGFIFAHYAMGWYRPAPGKESELVAAISSRGGSTYYADSVKGRFTISRDNAKNTVYLQMNSLKPEDTAVYYCAKARHRPARGYEYWGQGTQVTVSS", "polyreactivity (PSR sort gate)": "high polyreactivity"},
      {"sequence": "QVQLVDSGGGLVQAGGSLRLSCAASGFIFAPYAMGWYRQAPGKERELVAAISSSGGSTYYADSVKGRFTISRDNAKNTVYLQMNSLKPEDTAVYYCAVDYLTLTYEYYYWGQGTQVTVSS", "polyreactivity (PSR sort gate)": "low polyreactivity"},
      {"sequence": "QVQLVDSGGGLVQAGGSLRLSCAASGFIFPLYTMGWSRQAPGKERELVAAITGSGGSTYYADSVKGRFTISRDNEKNTVYLQMNSLKPEDSAVYYCAKDYTYGMDWGQGTQVTVSS", "polyreactivity (PSR sort gate)": "low polyreactivity"},
      {"sequence": "QVQLVDSGGGLVQAGGSLRLSCAASGFIFRRNAMGWYRQAPGKERELVAAITGGGGSTYYADSVKGRFTISRDNAKNTVYLQMNSLKPEDTAVYYCNALPARRRWQVDYWGQGTQVTVSS", "polyreactivity (PSR sort gate)": "high polyreactivity"},
      {"sequence": "QVQLVDSGGGLVQAGGSLRLSCAASGFIFRRYAMGWYRQAPGKERDLVAVIRSSGGSTYYADSVKGRFTISRDNAKNTVYLQMNSLKPEDTAVYYCAARSILGYRSYGYWGEGTQVTVSS", "polyreactivity (PSR sort gate)": "high polyreactivity"},
      {"sequence": "QVQLVDSGGGLVQAGGSLRLSCAASGFIFRYYAMGWNRQATGKERELVAAISWSTDNTYYADSVKGRFTILRDNAKNTVYLQMNSLKPEDTAVYYCAADEGWYGPKLDYWGQGTQVTVSS", "polyreactivity (PSR sort gate)": "low polyreactivity"},
      {"sequence": "QVQLVDSGGGLVQAGGSLRLSCAASGFTFRYYAMGWYRQAPGKERELVAAISSSGTRTYYADSVKGRFTISRDNAKTTVYLQMNSLKPEDTAVYYCNAVSPTSTVDYWGQGTQVTVSS", "polyreactivity (PSR sort gate)": "high polyreactivity"},
      {"sequence": "QVQLVDSGGGLVQAGGSLRLSCAASGFTFTLNAMGWYRQAPGKERELVAGISSGGSTNYADSVKGRFTISRDNAKNTVYLQMNSLKPEDTAVYYCAADRGYVWRYDYWGEGTQVTVSS", "polyreactivity (PSR sort gate)": "low polyreactivity"},
      {"sequence": "QVQLVDSGGGLVQAGGSLRLSCAASGFTFTQYAMAWYIQAPGKERELVASIRSGGSTKYADSVKGRFTISRDNAKNTVYLQMISLKPEDTAVYYCAKDRYHISFFYQMEFWGQGTQVTVSS", "polyreactivity (PSR sort gate)": "low polyreactivity"},
      {"sequence": "QVQLVDSGGGLVQAGGSLRLSCAASGFTFVPYAMGWYRQAPGKERETNADSVKGRFTISRDNAKNTVYLQMNSLKPEDTAVYYCAAGGYGPYDYWGQGTQVTVSS", "polyreactivity (PSR sort gate)": "low polyreactivity"},
      {"sequence": "QVQLVDSGGGLVQAGGSLRLSCAASGFTFWRYVMGWYRQAPGKERELVAAISGRGSRTFYADSVKGRFTISRDNAKNTVYLQMNSLKPEDTAVYYCNAYPGTSGTLYVTPYDYWGQGSQVTVSS", "polyreactivity (PSR sort gate)": "high polyreactivity"},
      {"sequence": "QVQLVDSGGGLVQAGGSLRLSCAASGFTITRNVMGWYRQAHGKERELVAAITSGGNTNYADSVKGRFTISRDNAKNTVYLQMNSLKPEDTAVYYCATSYHRRYDYWGQGTQVTVSS", "polyreactivity (PSR sort gate)": "low polyreactivity"},
      {"sequence": "QVQLVDSGGGLVQAGGSLRLSCAASGGLFIVNDMGWYIQAPGKEMELVAAITSGGGKNYADSVKGRFTISRDNAKNTVYLQMNSLKPEVTAVYYCARDTYRQIVSNESYGFWGHGTQVTVSS", "polyreactivity (PSR sort gate)": "low polyreactivity"},
      {"sequence": "QVQLVDSGGGLVQAGGSLRLSCAASGIIFAYNAMGWYRQAPGKERELVAAITSGTSTHYADSVKGRFTISRDNAKNSVYLHINSLNPEDTAVYYCNADYFFEFDYWGQGTQVTVSS", "polyreactivity (PSR sort gate)": "low polyreactivity"},
      {"sequence": "QVQLVDSGGGLVQAGGSLRLSCAASGIIFRTNAMGWYRQAPGKERELVAAIRWSDGSTYYADSVKGRFTISRDNAKNTVYLQMNSLKPEDTAVYYCNAASQYTFDCSFDDWGQGTQVTVSS", "polyreactivity (PSR sort gate)": "low polyreactivity"},
      {"sequence": "QVQLVDSGGGLVQAGGSLRLSCAASGISFGVYAMGWYRQAPGKERELVAAISRRGASTYYADSVKGRFTISRDNAKTTVYLQMNILNPEDTAVYYCPAYLARRQYDYWGQGTKVTVSS", "polyreactivity (PSR sort gate)": "high polyreactivity"},
      {"sequence": "QVQLVDSGGGLVQAGGSLRLSCAASGITFGYYAMGWYRQAPGKERELVAAISFTGASTYYADSVKGRFTISRDNAKNTVYLQMYSLKPEDTAVYYCAADPYVPYHDFLSGFDYWGQGTQVTVSS", "polyreactivity (PSR sort gate)": "low polyreactivity"},
      {"sequence": "QVQLVDSGGGLVQAGGSLRLSCAASGITFWWYAMGWSRPAPGKEREVVAAISQRGGTYYADSVKGRFTISRDKAKNTVFLQMKSLKPDDTAVDSCAAVVYSRYAPYSAQYDDWGQGTQVTVSS", "polyreactivity (PSR sort gate)": "high polyreactivity"},
      {"sequence": "QVQLVDSGGGLVQAGGSLRLSCAASGITIPSYTMGWYRQGPGKERELVATIRNGGSTYYADSVKGRFTISRDNAKNTVYLQMNSLIPEDTAVYYCAAVPLWDYIFFYYLLYDYWGQGTQVTVSS", "polyreactivity (PSR sort gate)": "low polyreactivity"},
      {"sequence": "QVQLVDSGGGLVQAGGSLRLSCAASGLIFSYNAMGWYRQAPGKERELVATIRRVGSTNYADSVKGRFTISRDNEKNTVYLQMNSLKPEDTAVYYCAARSLRYGRGMYYWGQGTQVTVSS", "polyreactivity (PSR sort gate)": "high polyreactivity"},
      {"sequence": "QVQLVDSGGGLVQAGGSLRLSCAASGLSFLVNAMGWYRQAPGKERELVAAIDRDGGITYADSVKGRFTISRDNAKNTVYLQMNSLKPDDTAVSYCAADPSSYGRFTYDYWGQGTQVNVSS", "polyreactivity (PSR sort gate)": "low polyreactivity"},
      {"sequence": "QVQLVDSGGGLVQAGGSLRLSCAASGLTFRRYAMAWYRQAPGKERELVAGISRGGSTYYADSVKGRFTISRDNAKNTVYLQMTSLKPEDTAVYYCAAYNRGTYPVQPVPYDMDYWGQGTQVTVSS", "polyreactivity (PSR sort gate)": "low polyreactivity"},
      {"sequence": "QVQLVDSGGGLVQAGGSLRLSCAASGLTILPNAMGWSRQAPGNDRELVAAISWGDGNTYYADSVKGRFTISRDNAKNTVYLQMNSLKPEDTAVYYCAADVIKSRTYDYWGQGTQVTVSS", "polyreactivity (PSR sort gate)": "low polyreactivity"},
      {"sequence": "QVQLVDSGGGLVQAGGSLRLSCAASGNIFTSYARGWYRQAPGKERELVAAISSGGRTSYADSVKGRFTISRDNAMNTVFLQMNSLKPDYTAVYYCAAYYRRWPREYYYWGQGTQVSVSS", "polyreactivity (PSR sort gate)": "high polyreactivity"},
      {"sequence": "QVQLVDSGGGLVQAGGSLRLSCAASGRIFGAYTMGWYRQAPGKEREFVADITSGGSTDYADSVKGRFTISRDNAKNTVSLQMNSLKPEDTAVYYCAAGGWVASLYLYDYWGHGTQVTVSS", "polyreactivity (PSR sort gate)": "low polyreactivity"},
      {"sequence": "QVQLVDSGGGLVQAGGSLRLSCAASGRIFGYNAMGWSRQAPGKERELVAAISSGGGTNYADSVKGRFTISRDNAKNTVYLQMNSLKPEDTAVYYCAVRRRRYHTYYRGYDYWGQGTQVTVSS", "polyreactivity (PSR sort gate)": "low polyreactivity"},
      {"sequence": "QVQLVDSGGGLVQAGGSLRLSCAASGRIFHCYAMGWYRQAPGKERELVAAIRASGGRTYYADSVKGRFTISRDNAKNTVYLQMNSLKPEDTAVYYCAADSVKYGGDYWGQGTQVTVSS", "polyreactivity (PSR sort gate)": "high polyreactivity"},
      {"sequence": "QVQLVDSGGGLVQAGGSLRLSCAASGRIFPYYDMGWYRQAPGKERELVAAITWNGGSTYYADSVKGRFTISRDNAKNTVYLQMNSLKPEDTAVYYWAVEPYYYGEDYWGQGTQVTVSS", "polyreactivity (PSR sort gate)": "low polyreactivity"},
      {"sequence": "QVQLVDSGGGLVQAGGSLRLSCAASGRTFAWNAMGWYRQAPGKERELVAVITSGGSTNYADSVKGRFTISRDNAKNTVYLQMNSLKPEDTAVYYCATGDGPSLFDYWGQGTQVTVSS", "polyreactivity (PSR sort gate)": "low polyreactivity"},
      {"sequence": "QVQLVDSGGGLVQAGGSLRLSCAASGRTFGRKAMGWYRQAPGERELVAVISRGGSTYYADSVKGRFTISRDNAKNTVYLQMNSLKPEDTAVYYCNADTVYTRTAPYDYCGQGTQVTVSS", "polyreactivity (PSR sort gate)": "low polyreactivity"}
    ]}
  ]
}
